18 molecules from US20020004485A1 can be followed below.

Square brackets hold non-standard residues; d marks the D form. Ends that are not written are not given here. * marks the point of attachment. Benzoyl(3-OMe) = COc1cccc(C(=O)*)c1; Benzoyl(4-OMe) = COc1ccc(C(=O)*)cc1; d2Thi = N[C@H](Cc1cccs1)C(=O)O; dNal = D-naphthylalanine

To fix the notation:
B1: S-116 (peptide)
peptide: {Benzoyl(4-OMe)}-RKLL[dY]I[dL]-NH2
SMILES: CC[C@H](C)[C@H](NC(=O)[C@@H](Cc1ccc(O)cc1)NC(=O)[C@H](CC(C)C)NC(=O)[C@H](CC(C)C)NC(=O)[C@H](CCCCN)NC(=O)[C@H](CCCNC(=N)N)NC(=O)c1ccc(OC)cc1)C(=O)N[C@H](CC(C)C)C(N)=O
B2: SQW-3 (peptide)
peptide: {Benzoyl(4-OMe)}-R[dR]I[dR]P[dK][dL]-NH2
SMILES: CC[C@H](C)[C@H](NC(=O)[C@@H](CCCNC(=N)N)NC(=O)[C@H](CCCNC(=N)N)NC(=O)c1ccc(OC)cc1)C(=O)N[C@H](CCCNC(=N)N)C(=O)N1CCC[C@H]1C(=O)N[C@H](CCCCN)C(=O)N[C@H](CC(C)C)C(N)=O
B3: S-167 (peptide)
peptide: {Benzoyl(4-OMe)}-AKLL[d2Thi]I[dL]-NH2
SMILES: CC[C@H](C)[C@H](NC(=O)[C@@H](Cc1cccs1)NC(=O)[C@H](CC(C)C)NC(=O)[C@H](CC(C)C)NC(=O)[C@H](CCCCN)NC(=O)[C@H](C)NC(=O)c1ccc(OC)cc1)C(=O)N[C@H](CC(C)C)C(N)=O
B4: SQW-2 (peptide)
peptide: {Benzoyl(4-OMe)}-RRI[dR]P[dK][dL]-NH2
SMILES: CC[C@H](C)[C@H](NC(=O)[C@H](CCCNC(=N)N)NC(=O)[C@H](CCCNC(=N)N)NC(=O)c1ccc(OC)cc1)C(=O)N[C@H](CCCNC(=N)N)C(=O)N1CCC[C@H]1C(=O)N[C@H](CCCCN)C(=O)N[C@H](CC(C)C)C(N)=O
B5: S-160 (peptide)
peptide: {Benzoyl(4-OMe)}-RKAL[d2Thi]I[dL]-NH2
SMILES: CC[C@H](C)[C@H](NC(=O)[C@@H](Cc1cccs1)NC(=O)[C@H](CC(C)C)NC(=O)[C@H](C)NC(=O)[C@H](CCCCN)NC(=O)[C@H](CCCNC(=N)N)NC(=O)c1ccc(OC)cc1)C(=O)N[C@H](CC(C)C)C(N)=O
B6: S-164 (peptide)
peptide: {Benzoyl(4-OMe)}-RKLL[dA]I[dL]-NH2
SMILES: CC[C@H](C)[C@H](NC(=O)[C@@H](C)NC(=O)[C@H](CC(C)C)NC(=O)[C@H](CC(C)C)NC(=O)[C@H](CCCCN)NC(=O)[C@H](CCCNC(=N)N)NC(=O)c1ccc(OC)cc1)C(=O)N[C@H](CC(C)C)C(N)=O
B7: SQW-7 (peptide)
peptide: {Benzoyl(3-OMe)}-ARIRPKL-NH2
SMILES: CC[C@H](C)[C@H](NC(=O)[C@H](CCCNC(=N)N)NC(=O)[C@H](C)NC(=O)c1cccc(OC)c1)C(=O)N[C@@H](CCCNC(=N)N)C(=O)N1CCC[C@H]1C(=O)N[C@@H](CCCCN)C(=O)N[C@@H](CC(C)C)C(N)=O
B8: S-162 (peptide)
peptide: {Benzoyl(4-OMe)}-RKLL[d2Thi]I[dA]-NH2
SMILES: CC[C@H](C)[C@H](NC(=O)[C@@H](Cc1cccs1)NC(=O)[C@H](CC(C)C)NC(=O)[C@H](CC(C)C)NC(=O)[C@H](CCCCN)NC(=O)[C@H](CCCNC(=N)N)NC(=O)c1ccc(OC)cc1)C(=O)N[C@H](C)C(N)=O
B9: S-117 (peptide)
peptide: {Benzoyl(4-OMe)}-RKLL[dW]I[dL]-NH2
SMILES: CC[C@H](C)[C@H](NC(=O)[C@@H](Cc1c[nH]c2ccccc12)NC(=O)[C@H](CC(C)C)NC(=O)[C@H](CC(C)C)NC(=O)[C@H](CCCCN)NC(=O)[C@H](CCCNC(=N)N)NC(=O)c1ccc(OC)cc1)C(=O)N[C@H](CC(C)C)C(N)=O
B10: S-165 (peptide)
peptide: {Benzoyl(4-OMe)}-RKLA[d2Thi]I[dL]-NH2
SMILES: CC[C@H](C)[C@H](NC(=O)[C@@H](Cc1cccs1)NC(=O)[C@H](C)NC(=O)[C@H](CC(C)C)NC(=O)[C@H](CCCCN)NC(=O)[C@H](CCCNC(=N)N)NC(=O)c1ccc(OC)cc1)C(=O)N[C@H](CC(C)C)C(N)=O
B11: S-163 (peptide)
peptide: {Benzoyl(4-OMe)}-RKLL[d2Thi]A[dL]-NH2
SMILES: COc1ccc(C(=O)N[C@@H](CCCNC(=N)N)C(=O)N[C@@H](CCCCN)C(=O)N[C@@H](CC(C)C)C(=O)N[C@@H](CC(C)C)C(=O)N[C@H](Cc2cccs2)C(=O)N[C@@H](C)C(=O)N[C@H](CC(C)C)C(N)=O)cc1
B12: SQW-4 (peptide)
peptide: {Benzoyl(4-OMe)}-[dR][dR]I[dR]P[dK][dL]-NH2
SMILES: CC[C@H](C)[C@H](NC(=O)[C@@H](CCCNC(=N)N)NC(=O)[C@@H](CCCNC(=N)N)NC(=O)c1ccc(OC)cc1)C(=O)N[C@H](CCCNC(=N)N)C(=O)N1CCC[C@H]1C(=O)N[C@H](CCCCN)C(=O)N[C@H](CC(C)C)C(N)=O
B13: mystixin-7 (S-21) (peptide)
peptide: {Benzoyl(4-OMe)}-RKLL[d2Thi]I[dL]-NH2
SMILES: CC[C@H](C)[C@H](NC(=O)[C@@H](Cc1cccs1)NC(=O)[C@H](CC(C)C)NC(=O)[C@H](CC(C)C)NC(=O)[C@H](CCCCN)NC(=O)[C@H](CCCNC(=N)N)NC(=O)c1ccc(OC)cc1)C(=O)N[C@H](CC(C)C)C(N)=O
B14: S-166 (peptide)
peptide: {Benzoyl(4-OMe)}-RALL[d2Thi]I[dL]-NH2
SMILES: CC[C@H](C)[C@H](NC(=O)[C@@H](Cc1cccs1)NC(=O)[C@H](CC(C)C)NC(=O)[C@H](CC(C)C)NC(=O)[C@H](C)NC(=O)[C@H](CCCNC(=N)N)NC(=O)c1ccc(OC)cc1)C(=O)N[C@H](CC(C)C)C(N)=O

This assay deals with MC receptor endogenous to Xenopus laevis melanophores (Xenopus laevis). Description: cell-based or functional assay.
The molecule {Benzoyl(4-OMe)}-RKLL[dNal]I[dL]-NH2 [S-114] yielded an MCR Antagonism IC50 nM In Xenopus of 166 nM. For the molecule QGKRPWIL (peptide, UniProt P07198 74-81, looked up, ends and bridges not checked) [xenopsin], the IC50 in the frog MCR assay is greater than 10000 nM. For B1, the MCR Antagonism IC50 nM In Xenopus stood at 77 nM. B2: the MCR IC50 nM: antagonism of α-MSH (600 pM) darkening of frog melanophores amounted to 156 nM.

Molecule QGPPISIDLSLELLRKMIEIEKQEKEKQQAANNRLLLDTI (peptide, UniProt P01144 1-40, looked up) [sauvagine] returned an IC50 in the frog MCR assay greater than 10000 nM.

As to B3, the MCR Antagonism IC50 nM In Xenopus amounted to 1200 nM. The molecule B4 showed an MCR IC50 nM: antagonism of α-MSH (600 pM) darkening of frog melanophores of 114 nM. B5 gave an MCR Antagonism IC50 nM In Xenopus of 197 nM.

As for SEEPPISLDLTFHLLREVLEMARAEQLAQQAHSNRKLMEII (peptide, UniProt P06850 154-194, looked up) [human CRH], the IC50 in the frog MCR assay was determined as 10000 nM. The molecule B6 returned an MCR Antagonism IC50 nM In Xenopus of 26 nM. The molecule B7 gave an MCR IC50 nM: antagonism of α-MSH (600 pM) darkening of frog melanophores of 110 nM. The molecule B8 yielded an MCR Antagonism IC50 nM In Xenopus of 43 nM. Still for that read-out and setting: next, B9: 22 nM. The same measure, in the same setting: as for B10, the figure is 282 nM; as for B11, 234 nM.

Take B12: the MCR IC50 nM: antagonism of α-MSH (600 pM) darkening of frog melanophores was 17 nM. In turn, B13 came in with an MCR Antagonism IC50 nM In Xenopus of 237 nM. On the same count and under the same terms, next, B14: 1200 nM.
